First the molecules themselves.
B1: CAR44 huMNC2-CD8-4-1BB-CD3z (other)
chain: EVQLVESGGGLVKPGGSLRLSCAASGFTFSGYAMSWVRQAPGKGLEWVSTISSGGTYIYYPDSVKGRFTISRDNAKNSLYLQMNSLRAEDTAVYYCARLGGDNYYEYFDVWGKGTTVTVSSGGGGSGGGGSGGGGSDIVLTQSPASLAVSPGQRATITCRASKSVSTSGYSYMHWYQQKPGQPPKLLIYLASNLESGVPARFSGSGSGTDFTLTINPVEANDTANYYCQHSRELPFTFGGGTKVEIKRTTTTPAPRPPTPAPTIASQPLSLRPEACRPAAGGAVHTRGLDFACDIYIWAPLAGTCGVLLLSLVITLYCKRGRKKLLYIFKQPFMRPVQTTQEEDGCSCRFPEEEEGGCELRVKFSRSADAPAYKQGQNQLYNELNLGRREEYDVLDKRRGRDPEMGGKPRRKNPQEGLYNELQKDKMAEAYSEIGMKGERRRGKGHDGLYQGLSTATKDTYDALHMQALPPR
notes: also called huMNC2-CAR44; huMNC2-scFv-CAR44
B2: mouse monoclonal antibody MN-E6 (antibody, V domains shown)
VH: EVKVVESGGDLVKPGGSLKLSCVVSGFTFSRYGMSWVRQTPGKRLEWVATISGGGTYIYYPDSVKGRFTISRDNAKNTLYLQMSSLKSEDTAMYHCTRDNYGRNYDYGMDYWGQGTSVTVSS
VL: QIVLTQSPAIMSASPGEEVTLTCSATSSVSYIHWFQQRPGTSPKLWIYSTSNLASGVPVRFSGSGYGTSYSLTISRMEAEDAATYYCQQRSSSPFTFGSGTKLEIK
notes: mouse monoclonal; also called Min-E6
B3: CAR50 (MNC2 scFv, CD4 transmembrane domain, 41BB-3zeta) (other)
chain: EVQLVESGGGLVKPGGSLRLSCAASGFTFSGYAMSWVRQAPGKGLEWVSTISSGGTYIYYPDSVKGRFTISRDNAKNSLYLQMNSLRAEDTAVYYCARLGGDNYYEYFDVWGKGTTVTVSSGGGGSGGGGSGGGGSDIVLTQSPASLAVSPGQRATITCRASKSVSTSGYSYMHWYQQKPGQPPKLLIYLASNLESGVPARFSGSGSGTDFTLTINPVEANDTANYYCQHSRELPFTFGGGTKVEIKRTSGQVLLESNIKVLPTWSTPVQPMALIVLGGVAGLLLFIGLGIFFKRGRKKLLYIFKQPFMRPVQTTQEEDGCSCRFPEEEEGGCELRVKFSRSADAPAYKQGQNQLYNELNLGRREEYDVLDKRRGRDPEMGGKPRRKNPQEGLYNELQKDKMAEAYSEIGMKGERRRGKGHDGLYQGLSTATKDTYDALHMQALPPR
notes: chimeric antigen receptor on transduced human T cells; also called huMNC2-CAR50; huMNC2-scFv-CAR50
B4: humanized MN-E6 scFv (scFv, V domains shown, not shown: small tags and cut ends)
VH: EVQLVESGGGLVKPGGSLRLSCAASGFTFSRYGMSWVRQAPGKRLEWVSTISGGGTYIYYPDSVKGRFTISRDNAKNTLYLQMNSLRAEDTAVYYCTRDNYGRNYDYGMDYWGQGTLVTVSS
VL: EIVLTQSPATLSLSPGERATLTCSATSSVSYIHWYQQRPGQSPRLLIYSTSNLASGIPARFSGSGSGSDYTLTISSLEPEDFAVYYCQQRSSSPFTFGSGTKVEIK
notes: several humanized MN-E6 single chain proteins were generated; the one in the assays is not identified; also called hu MN-E6 scFv
B5: mouse monoclonal antibody MN-C2 (antibody, V domains shown)
VH: EVQLEESGGGLVKPGGSLKLSCAASGFTFSGYAMSWVRQTPEKRLEWVATISSGGTYIYYPDSVKGRFTISRDNAKNTLYLQMSSLRSEDTAMYYCARLGGDNYYEYFDVWGAGTTVTVSS
VL: DIVITQSTASLGVSLGQRATISCRASKSVSTSGYSYMHWYQQRPGQPPKLLIYLASNLESGVPARFSGSGSGTDFTLNIHPVEEEDAATYYCQHSRELPFTFGGGTKLEIKR
notes: mouse monoclonal; also called Min-C2
B6: PSMGFR minus 10 amino acids from the C-terminus (peptide)
peptide: GTINVHDVETQFNQYKTEAASRYNLTISDVSVSDV
notes: also called C-10; C-10 PSMGFR
B7: humanized MN-C3 antibody (antibody, V domains shown)
VH: QVQLVQSGAEVKKPGASVKVSCKASGYTFTDYAMNWVRQAPGQGLEWMGVISTFSGNTNFNQKFKGRVTMTTDTSTSTAYMELRSLRSDDTAVYYCARSDYYGPYFDYWGQGTTLTVSS
VL: DIVMTQTPLSLSVTPGQPASISCRSSQTIVHSNGNTYLEWYLQKPGQSPQLLIYKVSNRFSGVPDRFSGSGSGTDFTLKISRVEAEDVGVYYCFQGSHVPFTFGGGTKVEIKR
notes: tested impure; also called Impure humanized MN-C3 antibody
B8: humanized MN-C2 scFv (scFv, V domains shown)
VH: EVQLVESGGGLVKPGGSLRLSCAASGFTFSGYAMSWVRQAPGKGLEWVSTISSGGTYIYYPDSVKGRFTISRDNAKNSLYLQMNSLRAEDTAVYYCARLGGDNYYEYFDVWGKGTTVTVSS
VL: DIVLTQSPASLAVSPGQRATITCRASKSVSTSGYSYMHWYQQKPGQPPKLLIYLASNLESGVPARFSGSGSGTDFTLTINPVEANDTANYYCQHSRELPFTFGGGTKVEIKR
notes: several humanized MN-C2 single chain proteins were generated; the one in the assays is not identified; also called huMN-C2 scFv; hMN-C2 scFv; not shown: 6x His tag, detected in the flow cytometry assay
B9: mouse monoclonal antibody MN-C3 (antibody, V domains shown)
VH: QVQLQQSGPELVRPGVSVKISCKGSGYRFTDYAMNWVKQSHAKSLEWIGVISTFSGNTNFNQKFKGKATMTVDKSSSTAYMELARLTSEDSAMYYCARSDYYGPYFDYWGQGTTLTVSS
VL: DVLMTQTPLSLPVSLGDQASISCRSSQTIVHSNGNTYLEWYLQKPGQSPKLLIYKVSNRFSGVPDRFSGSGSGTDFTLKINRVEAEDLGVYYCFQGSHVPFTFGSGTKLEIK
notes: mouse monoclonal; also called Min-C3

For assay [1], the target named is MUC1-41TR (MUC1 with an extracellular domain truncated after 41 tandem repeats) (Homo sapiens (Human)) (UniProt P15941). Put plainly: FACS on HCT-MUC1-41TR cells.
In assay [2] the target is T1, MUC1-41TR (MUC1 with an extracellular domain truncated after 41 tandem repeats) (Homo sapiens (Human), UniProt P15941 24-1255).
T1 construct: only minimally cleaved to MUC1*; also called HCT-MUC1-41TR; HCT-MUC1-18
The experiment in a line: CAR T co-culture, photographs; no T cell induced clustering. On the procedure: FIGS. 75A-75P show photographs of a CAR T co-culture assay in which the targeting antibody fragment of the CAR is huMNC2scFv wherein CAR44 has a CD8 transmembrane domain, followed by 41BB-3zeta and CAR50 has a CD4 transmembrane domain, followed by 41BB-3zeta. […] The HCT-MUC1-41TR cancer cells were also incubated with conditioned media from cells transfected with MMP9 or ADAM17 before co-culture with the CAR T cells. Conditioned media of the MMP9 or ADAM17 expressing cells were also incubated with APMA which is an activator of those cleavage enzymes. The images shown are an overlay of the 4× bright field image and the fluorescent image of the same showing cancer cells dyed with a red CMTMR lipophilic dye. FIGS. 75A, 75E, 75I, 75M show photographs of cells co-cultured with untransduced human T cells. FIGS. 75B, 75F, 75J, 75N show photographs of cells co-cultured with human T cells transduced with anti-MUC1* CAR44 at an MOI of 10. FIGS. 75C, 75G, 75K, 75O show photographs of cells co-cultured with human T cells transduced with anti-MUC1* CAR50 at an MOI of 10. FIGS. 75D, 75H, 75L, 75P show photographs of cells co-cultured with human T cells transduced with anti-MUC1* CAR44 at an MOI of 50, which increases transduction efficiency. […] There is no T cell induced clustering and the number of cancer cells has not decreased. […]

Assay [3] deals with T2, PSMGFR peptide (Primary Sequence of the MUC1 Growth Factor Receptor).
T2 construct: synthetic peptide, immobilized on ELISA plates or attached to beads; also called MUC1* peptide; synthetic MUC1* extra cellular domain peptide
T2 peptide: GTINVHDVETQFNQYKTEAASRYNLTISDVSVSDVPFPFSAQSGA
Put plainly: competitive ELISA on immobilized PSMGFR or N-10 peptide. Here is the method:
(§1) FIGS. 3A-3C show results of competitive ELISA assays. The PSMGFR MUC1* peptide is immobilized on the plate and dimeric NM23-H1, aka NME1, is added either alone or after the MN-E6 antibody has been added (A). The same experiment was performed wherein NM23-H7, NME7-AB, is added alone or after MN-E6 has been added (B). […] In a similar experiment (C), PSMGFR or PSMGFR minus 10 amino acids from the N-terminus, aka N-10, is immobilized on the plate. Dimeric NM23-H1 is then added. Anti-MUC1* antibodies MN-E6, MN-C2, MN-C3 or MN-C8 are then tested for their ability to compete off the NM23-H1.

Assay [4] deals with T3, PSMGFR minus 10 amino acids from the N-terminus.
T3 construct: also called N-10; N-10 PSMGFR
T3 peptide: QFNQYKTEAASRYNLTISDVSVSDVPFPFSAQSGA
Put plainly: selection criteria, FIGS. 3A-3C named. On the procedure: as §1

Assay [5] addresses T2, PSMGFR peptide (Primary Sequence of the …). The experiment in a line: ELISA on PSMGFR peptide. The text has this:
FIGS. 21A-21B show an ELISA graph of several anti-MUC1* scFv-Fc fusion proteins wherein the Fc region has been eliminated or mutated. Shown are hu MN-E6 scFv-Fc-wt, hu MN-E6 scFv-Fc-Y407R, hu MN-E6 scFv-Fc-hingeless, and hu MN-E6 scFv-Fc-Y407R-hingeless. All mutants bind to the PSMGFR peptide of the MUC1* extracellular domain (A). An ELISA graph of several anti-MUC1* scFv-Fc fusion proteins wherein the Fc region is either wild type or mutated. Shown are hu MN-E6 scFv-Fc-wt, hu MN-E6 scFv-Fc-hingeless, and hu MN-C3 scFv-Fc is shown (B). All bind to the PSMGFR peptide of the MUC1* extracellular domain.
On the technique in general: ELISA stands for enzyme-linked immunosorbent assay.

A further assay has as its target T4, NME7-AB (human, UniProt Q9Y5B8 92-376).
T4 construct: also called NM23-H7
T4 sequence: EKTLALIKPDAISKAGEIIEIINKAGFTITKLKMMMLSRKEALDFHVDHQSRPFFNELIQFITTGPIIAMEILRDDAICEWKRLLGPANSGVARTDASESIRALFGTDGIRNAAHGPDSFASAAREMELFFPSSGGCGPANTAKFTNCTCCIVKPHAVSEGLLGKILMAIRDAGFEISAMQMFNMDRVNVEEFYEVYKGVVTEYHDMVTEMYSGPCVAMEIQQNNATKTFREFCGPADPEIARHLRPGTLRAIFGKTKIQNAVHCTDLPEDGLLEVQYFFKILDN
The experiment in a line: ELISA on immobilized peptide.

In another assay the target is T5, dimeric NME1 (human, UniProt P15531 1-152, limits assumed).
T5 construct: used as a dimer; also called dimeric NM23-H1; NM23-H1 dimers
The experiment in a line: ELISA on immobilized peptide.

Assay [6] deals with T2, PSMGFR peptide (Primary Sequence of the …). The experiment in a line: ELISA on immobilized PSMGFR, N-10 and C-10 peptides. Here is the method: FIGS. 22A-22C show graphs of ELISAs wherein the assay plate surface was immobilized with either PSMGFR peptide, PSMGFR minus 10 amino acids from the N-terminus or minus 10 amino acids from the C-terminus. The MN-C3 antibody variants were then assayed for binding to the various MUC1* peptides. A) Purified mouse monoclonal MN-C3 antibody; B) Impure humanized MN-C3 antibody; and C) the humanized MN-C3 scFv-Fc. ELISAs show binding to the PSMGFR peptide as well as to certain deletion peptides.

For assay [7] the target is unchanged. Put plainly: ELISA, surface coated with PSMGFR peptide or a control peptide. Here is the method: Humanized MN-C2 scFv is then incubated with the surface, washed and detected according to standard methods.
Assay [8] addresses B6. The experiment in a line: ELISA on immobilized N-10 and C-10 peptides.

T1 sequence (P15941 other isoform, or with tags, fused parts or gaps limits assumed): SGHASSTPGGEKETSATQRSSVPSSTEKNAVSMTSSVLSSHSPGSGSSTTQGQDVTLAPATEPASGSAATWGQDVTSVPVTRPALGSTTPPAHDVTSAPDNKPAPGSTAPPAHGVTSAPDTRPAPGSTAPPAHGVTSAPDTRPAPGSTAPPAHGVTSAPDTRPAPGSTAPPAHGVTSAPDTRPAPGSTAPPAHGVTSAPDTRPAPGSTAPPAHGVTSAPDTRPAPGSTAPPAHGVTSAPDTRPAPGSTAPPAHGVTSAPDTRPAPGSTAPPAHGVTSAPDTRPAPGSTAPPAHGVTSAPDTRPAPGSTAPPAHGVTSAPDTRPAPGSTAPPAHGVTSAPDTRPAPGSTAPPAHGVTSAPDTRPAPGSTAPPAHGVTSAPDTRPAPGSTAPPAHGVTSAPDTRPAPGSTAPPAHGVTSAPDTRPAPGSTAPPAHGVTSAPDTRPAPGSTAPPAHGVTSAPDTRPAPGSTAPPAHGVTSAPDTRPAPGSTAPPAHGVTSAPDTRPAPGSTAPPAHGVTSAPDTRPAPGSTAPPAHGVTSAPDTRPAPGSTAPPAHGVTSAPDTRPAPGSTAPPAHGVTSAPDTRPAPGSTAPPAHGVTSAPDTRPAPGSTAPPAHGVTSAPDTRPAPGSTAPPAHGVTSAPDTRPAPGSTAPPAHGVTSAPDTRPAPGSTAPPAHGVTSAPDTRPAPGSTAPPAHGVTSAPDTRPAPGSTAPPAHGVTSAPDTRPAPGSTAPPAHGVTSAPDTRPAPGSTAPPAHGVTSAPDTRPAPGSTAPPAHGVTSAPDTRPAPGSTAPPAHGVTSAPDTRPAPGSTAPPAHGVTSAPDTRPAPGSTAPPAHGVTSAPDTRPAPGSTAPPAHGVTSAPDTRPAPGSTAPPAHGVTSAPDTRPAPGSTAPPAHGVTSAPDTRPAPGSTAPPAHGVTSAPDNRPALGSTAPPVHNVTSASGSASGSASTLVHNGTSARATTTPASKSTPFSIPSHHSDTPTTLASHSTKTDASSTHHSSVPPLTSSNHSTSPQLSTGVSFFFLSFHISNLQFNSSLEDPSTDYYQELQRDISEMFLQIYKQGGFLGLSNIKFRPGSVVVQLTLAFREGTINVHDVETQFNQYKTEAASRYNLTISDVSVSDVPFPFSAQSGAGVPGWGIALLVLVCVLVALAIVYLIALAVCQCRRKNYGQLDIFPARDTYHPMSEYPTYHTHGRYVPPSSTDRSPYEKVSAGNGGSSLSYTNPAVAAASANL
Sequence of MUC1-41TR (MUC1 with an extracellular domain truncated after 41 tandem repeats) (Homo sapiens (Human)) (P15941 other isoform, or with tags, fused parts or gaps limits assumed): as above
T5 sequence (P15531 whole entry): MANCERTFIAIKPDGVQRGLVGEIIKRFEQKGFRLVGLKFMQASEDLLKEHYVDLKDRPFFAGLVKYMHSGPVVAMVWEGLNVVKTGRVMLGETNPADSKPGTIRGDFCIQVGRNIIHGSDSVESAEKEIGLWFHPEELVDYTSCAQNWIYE

For the molecule VU4H5 (antibody), the percent of cells positive in assay [1] came to 95%.
On to B1, for which the binding result in assay [2] is reported as “no binding”.
Regarding B2, the binding result in [3] and in [4] was “binds” throughout.
Take B3: in [2], the binding result is on record as “no binding”.
For B4, the binding result in assay [5] is “binds”.
On to B5, for which the binding result in [3] and in assay [4] was “binds” each time.
On to B6, for which the binding result with NME7-AB and with dimeric NME1 was “no binding” in each case.
With B7, in assay [6], the binding result is listed as “binds”.
As a reminder, the EC50 is the concentration giving half of the maximal effect. Lower therefore signals greater potency. In [7], B8 displayed an EC50 of around 333 nM.
Consider B9, for which the binding result in [6] and in assay [8] was “binds” in each case.

These data come from patent US20200390870A1 (MINERVA BIOTECHNOLOGIES, published 2020).
